The source of these data is patent US20230025732A1 (INNATE PHARMA, published 2023).

Substitutions are numbered along the chain they refer to. Names may count otherwise.

Assay [1] deals with T1, human CD39 expressed at the cell surface (human, UniProt P49961 1-510).
T1 construct: On CHO transfectants, Hek-293T transfectants, Ramos and Mino tumor cells; also called huCD39; CHO-huCD39
T1 sequence: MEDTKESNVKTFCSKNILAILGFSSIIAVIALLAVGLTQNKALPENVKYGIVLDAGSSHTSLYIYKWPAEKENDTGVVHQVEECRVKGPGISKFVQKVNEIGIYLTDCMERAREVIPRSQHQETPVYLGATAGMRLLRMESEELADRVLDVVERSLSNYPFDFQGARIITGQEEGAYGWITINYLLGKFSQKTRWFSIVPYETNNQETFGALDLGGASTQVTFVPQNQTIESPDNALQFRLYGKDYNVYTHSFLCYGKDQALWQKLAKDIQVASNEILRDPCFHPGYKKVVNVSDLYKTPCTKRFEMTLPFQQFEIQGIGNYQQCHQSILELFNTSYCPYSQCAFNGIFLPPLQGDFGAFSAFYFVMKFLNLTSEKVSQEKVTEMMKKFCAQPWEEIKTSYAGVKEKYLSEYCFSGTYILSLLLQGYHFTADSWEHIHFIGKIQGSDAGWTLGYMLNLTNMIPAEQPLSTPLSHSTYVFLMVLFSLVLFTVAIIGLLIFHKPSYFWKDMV
Nature of the assay: flow cytometry titration on Ramos lymphoma cells (Mean of Fluorescence), panel L1.

Assay [2] has as its target T1, human CD39 expressed at the cell surface. Description: flow cytometry titration on Ramos lymphoma cells (Mean of Fluorescence), panel L0.
Assay [3] has the same target. Nature of the assay: flow cytometry titration on Ramos lymphoma cells (Mean of Fluorescence), panel L1*.
Assay [4] shares this target. Description: flow cytometry, CHO cells expressing human CD39. How it is done:
Cells were incubated with various concentration of unlabeled anti-CD39 antibody from 30 μg/ml to 5×10⁻⁴ μg/ml, for 30 minutes at 4° C. After washes, cells were incubated with Goat anti-mouse H+L labeled secondary antibody for 30 min at 4° C.
Antibodies mAb1-21 were assessed for binding to CD39 by flow cytometry as described in Example 7, using CHO cells expressing human CD39 and CHO cells expressing cynomolgus (Macaca fascicularis) CD39.

B1: mAb8 H2L1 (antibody, human IgG1, V domains shown)
VH: QVQLVQSGAEVKKPGASVKVSCKASGYTFTDYNMHWVRQAPGQRLEWMGYIVPLNGGSTFNQKFKGRATITVDTSASTAYMELSSLRSEDTAVYYCARGGTRFAYWGQGTLVTVSS
VL: DIVMTQSPDSLAVSLGERATINCRASESVDNFGVSFMYWFQQKPGQPPKLLIYGASNQGSGVPDRFSGSGSGTDFTLTISSLQAEDVAVYYCQQTKEVPYTFGGGTKVEIK
With B1, the binding result in assay [1] is given as “binds”.

B2: mAb20 H4L1 (antibody, human IgG1, kappa, V domains shown)
VH: B1 VH with M48I, S77R
VL: DIVMTQSPDSLAVSLGERATINCRASESVDNFGVSFMYWFQQKPGQPPKLLIYGASNQGSGVPDRFSGSGSGTDFTLTISSLQAEDVAVYYCQQTKEVPYTFGGGTKVEIKR
notes: full heavy chain carries L234A/L235E/G237A/A330S/P331S
For the molecule B2, the “EC50 (read off the curve)” value in assay [1] was ~0.8 µg/mL.

B3: mAb5 H1L1 (antibody, human IgG1, V domains shown)
VH: QVQLVQSGAEVKKPGASVKVSCKASGYTFTDYNMHWVRQAPGQRLEWMGYIVPLNGGSTFNQKFKGRVTITVDTSASTAYMELSSLRSEDTAVYYCARGGTRFAYWGQGTLVTVS
VL: B1 VL
For the molecule B3, the binding result in assay [1] is “binds”.

B4: mAb13 H3L0 (antibody, human IgG1, V domains shown)
VH: B1 VH with M48I
VL: B1 VL with F40Y
For the molecule B4, the binding result in assay [2] is “binds”.

B5: mAb15 H3L1* (antibody, human IgG1, V domains shown)
VH: B1 VH with M48I
VL: B1 VL with R24K
Consider B5, for which the binding result in assay [3] is listed as “binds”.

B6: mAb6 H1L1* (antibody, human IgG1, V domains shown)
VH: B3 VH
VL: B1 VL with R24K
Consider B6, for which the binding result in assay [3] is listed as “binds”.

B7: mAb9 H2L1* (antibody, human IgG1, V domains shown)
VH: B1 VH
VL: B1 VL with R24K
On to B7, for which the binding result in assay [3] was “binds”.

B8: mAb10 H2*L0 (antibody, human IgG1, V domains shown)
VH: B1 VH with N61S
VL: B1 VL with F40Y
B8: in assay [2], the binding result was “binds”.

B9: mAb4 H1L0 (antibody, human IgG1, V domains shown)
VH: B3 VH
VL: B1 VL with F40Y
B9: the binding result in assay [2] is “binds”.

B10: mAb21 H4L1* (antibody, human IgG1, kappa, V domains shown)
VH: B1 VH with M48I, S77R
VL: B2 VL with R24K
Regarding B10, the binding result in assay [3] is given as “binds”.

B11: mAb17 H3*L1 (antibody, human IgG1, V domains shown)
VH: B1 VH with M48I, N61S, K65Q
VL: B1 VL
Take B11: the binding result in assay [4] was “binds”.

B12: mAb18 H3*L1* (antibody, human IgG1, V domains shown)
VH: B1 VH with M48I, N61S, K65Q
VL: B1 VL with R24K
For the molecule B12, in assay [3], the binding result is on record as “binds”.

B13: mAb12 H2*L1* (antibody, human IgG1, V domains shown)
VH: B1 VH with N61S
VL: B1 VL with R24K
As for B13, the binding result in assay [3] is listed as “binds”.

B14: mAb2 H0L1 (antibody, human IgG1, V domains shown)
VH: B1 VH with A68V, V72R
VL: B1 VL
Consider B14, for which the binding result in assay [4] is recorded as “binds”.

B15: mAb7 H2L0 (antibody, human IgG1, V domains shown)
VH: B1 VH
VL: B1 VL with F40Y
Take B15: the binding result in assay [2] is given as “binds”.

B16: mAb16 H3*L0 (antibody, human IgG1, V domains shown)
VH: B1 VH with M48I, N61S, K65Q
VL: B1 VL with F40Y
For the molecule B16, the binding result in assay [2] was “binds”.

B17: mAb22 H4*L0 (antibody, human IgG1, V domains shown)
VH: B1 VH with M48I, N61S, K65Q, S77R
VL: B1 VL with F40Y
On to B17, for which the binding result in assay [2] is “binds”.

B18: mAb11 H2*L1 (antibody, human IgG1, V domains shown)
VH: B1 VH with N61S
VL: B1 VL
B18: the binding result in assay [4] is given as “binds”.

B19: mAb1 H0L0 (antibody, human IgG1, V domains shown)
VH: B1 VH with A68V, V72R
VL: B1 VL with F40Y
As for B19, the binding result in assay [2] is on record as “binds”.

B20: mAb24 H4*L1* (antibody, human IgG1, V domains shown)
VH: B1 VH with M48I, N61S, K65Q, S77R
VL: B1 VL with R24K
For B20, the binding result in assay [3] was “binds”.

B21: mAb19 H4L0 (antibody, human IgG1, V domains shown)
VH: B1 VH with M48I, S77R
VL: B1 VL with F40Y
For B21, in assay [2], the binding result is “binds”.

B22: mAb3 H0L1* (antibody, human IgG1, V domains shown)
VH: B1 VH with A68V, V72R
VL: B1 VL with R24K
For B22, in assay [3], the binding result was “binds”.

B23: mAb14 H3L1 (antibody, human IgG1, V domains shown)
VH: B1 VH with M48I
VL: B1 VL
For the molecule B23, in assay [1], the binding result is listed as “binds”.
